Laboratory results reported in patent US6740638.

Molecular target: rat MHC class II molecules on Lewis rat splenic adherent cells (antigen presenting cells) (rat)
Assay: competition with 10 µM biotin-labeled MBP (87-99) for binding to OX-6/OX-17 positive rat splenic adherent cells, flow cytometry

Substance “MBP (87-99) peptide analogue with alanine at position 91 (91K>A)” has an IC50 of 21 µM.
